{"source": "paper PMC6826206", "system": "hcGAScat-WT (human)", "assay": "fluorescence anisotropy", "conditions": "reference; EMSA: 25 mM Tris-HCl pH 7.5, 1 mM DTT, 100 ug/ml BSA, 1 mM MgCl2, 45 mM KCl, 37 C 10 min, 7% PAGE in TAE at 4 C; FA: 5-10 nM FAM-dsDNA, Hill fit, buffer not …", "data": [{"substance": "dsDNA24", "values": [{"measurement": "binding signal (relative to WT)", "result": 1}]}]}
